Here are results for one molecule from patent US20150158921A1.

What all share (assay): cell-based or functional assay
The target of assay [1] is rat α2β2 nAChR (rat), P12389.
For assay [2], the target named is rat NMDA receptor NR1-2b/NR2D (rat), P35439.
In assay [3] the target is rat α6/α3β4 nAChR (rat), P12392.
Assay [4] has as its target human α7 nAChR (human), P36544.
Assay [5] addresses rat α3β2 nAChR (rat), P04757.
In assay [6] the target is rat NMDA receptor NR1-2b/NR2C (rat), P35439.
Assay [7] addresses rat α3β4 nAChR (rat), P04757.
The target in assay [8] is rat NMDA receptor NR1-2b/NR2B (rat), P35439.
Assay [9] deals with human α6/α3β2β3 nAChR (human), P17787.
Assay [10] addresses rat α6/α3β2β3 nAChR (rat), P12390.
The target in assay [11] is rat α4β4 nAChR (rat), P09483.
In assay [12] the target is rat NMDA receptor NR1-2b/NR2A (rat), P35439.
Assay [13] deals with rat α2β4 nAChR (rat), P12389.
Sequence of rat α2β4 nAChR (rat), P12389 (P12389 28-511, chain 1 of 2): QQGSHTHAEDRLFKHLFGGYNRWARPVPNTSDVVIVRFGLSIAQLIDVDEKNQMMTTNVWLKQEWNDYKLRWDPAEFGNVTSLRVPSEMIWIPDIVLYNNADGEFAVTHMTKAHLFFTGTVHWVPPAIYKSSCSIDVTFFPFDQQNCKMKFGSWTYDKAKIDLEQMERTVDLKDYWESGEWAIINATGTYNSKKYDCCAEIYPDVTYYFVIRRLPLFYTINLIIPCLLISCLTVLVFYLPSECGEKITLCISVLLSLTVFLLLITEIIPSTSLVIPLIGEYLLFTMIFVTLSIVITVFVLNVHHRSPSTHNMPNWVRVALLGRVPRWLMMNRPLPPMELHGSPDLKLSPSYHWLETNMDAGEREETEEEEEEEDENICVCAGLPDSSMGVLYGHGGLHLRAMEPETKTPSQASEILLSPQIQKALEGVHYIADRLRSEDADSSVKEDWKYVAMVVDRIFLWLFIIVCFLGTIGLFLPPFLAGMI
Sequence of rat α2β4 nAChR (rat), P12389 (P12392 21-495, chain 2 of 2, further chain): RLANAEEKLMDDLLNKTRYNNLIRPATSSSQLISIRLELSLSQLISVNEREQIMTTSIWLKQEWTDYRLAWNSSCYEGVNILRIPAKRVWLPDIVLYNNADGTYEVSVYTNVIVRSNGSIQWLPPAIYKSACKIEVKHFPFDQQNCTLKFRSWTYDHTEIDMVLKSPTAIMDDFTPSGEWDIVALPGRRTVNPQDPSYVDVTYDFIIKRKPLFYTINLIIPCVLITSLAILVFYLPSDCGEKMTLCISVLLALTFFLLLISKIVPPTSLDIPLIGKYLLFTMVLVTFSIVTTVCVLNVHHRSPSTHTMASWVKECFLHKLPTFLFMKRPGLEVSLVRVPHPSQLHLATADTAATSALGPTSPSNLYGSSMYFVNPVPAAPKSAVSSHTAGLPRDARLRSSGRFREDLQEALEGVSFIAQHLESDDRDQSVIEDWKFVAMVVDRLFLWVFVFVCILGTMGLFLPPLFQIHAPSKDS
Assay [14] addresses rat α4β2 nAChR (rat), P09483.
Assay [15] concerns the target rat α7 nAChR (rat), Q05941.

Sequence of human α7 nAChR (human), P36544 (P36544 23-502): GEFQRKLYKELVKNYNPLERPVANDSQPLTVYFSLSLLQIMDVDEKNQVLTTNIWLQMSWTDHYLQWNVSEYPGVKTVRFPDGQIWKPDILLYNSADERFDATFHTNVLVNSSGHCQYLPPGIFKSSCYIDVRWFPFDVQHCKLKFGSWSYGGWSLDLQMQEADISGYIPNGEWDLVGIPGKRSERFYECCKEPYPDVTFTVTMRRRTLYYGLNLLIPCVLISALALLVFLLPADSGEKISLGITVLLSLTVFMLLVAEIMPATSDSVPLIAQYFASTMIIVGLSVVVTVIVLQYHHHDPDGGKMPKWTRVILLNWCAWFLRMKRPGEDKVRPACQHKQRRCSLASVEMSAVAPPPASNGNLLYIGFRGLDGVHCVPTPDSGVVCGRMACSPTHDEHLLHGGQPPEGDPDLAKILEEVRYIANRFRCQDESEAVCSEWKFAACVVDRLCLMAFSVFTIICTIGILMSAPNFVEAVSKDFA
Sequence of rat α3β4 nAChR (rat), P04757 (P04757 26-499, chain 1 of 2): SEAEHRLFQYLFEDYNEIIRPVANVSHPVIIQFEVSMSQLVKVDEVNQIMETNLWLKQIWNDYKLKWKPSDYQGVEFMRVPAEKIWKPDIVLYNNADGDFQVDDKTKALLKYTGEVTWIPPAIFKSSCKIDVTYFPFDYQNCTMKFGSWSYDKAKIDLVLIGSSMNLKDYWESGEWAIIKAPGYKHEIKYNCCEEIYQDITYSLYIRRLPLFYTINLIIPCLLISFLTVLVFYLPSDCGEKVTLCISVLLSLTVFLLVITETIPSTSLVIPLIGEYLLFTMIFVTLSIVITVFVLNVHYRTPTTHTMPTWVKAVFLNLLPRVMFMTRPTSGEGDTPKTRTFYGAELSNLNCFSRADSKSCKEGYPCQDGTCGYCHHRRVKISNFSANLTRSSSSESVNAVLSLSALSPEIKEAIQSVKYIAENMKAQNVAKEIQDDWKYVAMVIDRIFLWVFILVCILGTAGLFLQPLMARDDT
Sequence of rat α3β4 nAChR (rat), P04757 (P12392 21-495, chain 2 of 2, further chain): as the sequence (P12392 21-495, chain 2 of 2, further chain) above
Sequence of rat α3β2 nAChR (rat), P04757 (P04757 26-499, chain 1 of 2): as the sequence (P04757 26-499, chain 1 of 2) above
Sequence of rat α3β2 nAChR (rat), P04757 (P12390 25-500, chain 2 of 2, further chain): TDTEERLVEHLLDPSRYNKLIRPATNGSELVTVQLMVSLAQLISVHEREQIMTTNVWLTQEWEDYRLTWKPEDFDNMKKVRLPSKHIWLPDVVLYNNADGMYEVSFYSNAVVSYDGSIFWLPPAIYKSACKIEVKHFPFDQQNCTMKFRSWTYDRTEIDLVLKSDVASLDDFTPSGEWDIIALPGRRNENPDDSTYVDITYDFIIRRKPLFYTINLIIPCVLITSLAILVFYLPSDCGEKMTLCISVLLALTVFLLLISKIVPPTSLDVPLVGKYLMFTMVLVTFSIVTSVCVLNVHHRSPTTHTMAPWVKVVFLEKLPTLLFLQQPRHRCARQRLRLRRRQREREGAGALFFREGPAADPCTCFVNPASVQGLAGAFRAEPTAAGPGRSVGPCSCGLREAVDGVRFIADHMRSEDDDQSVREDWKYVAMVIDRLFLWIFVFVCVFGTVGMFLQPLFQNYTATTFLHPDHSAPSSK
Sequence of rat α2β2 nAChR (rat), P12389 (P12389 28-511, chain 1 of 2): as the sequence (P12389 28-511, chain 1 of 2) above
Sequence of rat α2β2 nAChR (rat), P12389 (P12390 25-500, chain 2 of 2, further chain): as the sequence (P12390 25-500, chain 2 of 2, further chain) above
Sequence of rat α6/α3β4 nAChR (rat), P12392 (P12392 21-495): as the sequence (P12392 21-495, chain 2 of 2, further chain) above

TCRSSGRYCRSPYDRRRRYCRRITDACV (modifications not checked) [αO-conotoxin GeXIVA12 (GeXIVA mature peptide isomer with disulfide bonds I-II, III-IV)]: the Half-blocking dose IC50, ACh-gated current, oocyte voltage clamp in assay [1] amounted to 338 nM; in assay [3], 806 nM; in assay [4], 555 nM; in assay [5], 412 nM; in assay [7], 5400 nM; in assay [9], 505 nM. For the same molecule, the Half-blocking dose IC50, ACh-gated current, oocyte voltage clamp in assay [10] was 258 nM; in assay [11], 2390 nM; in [13], 2090 nM; in assay [14], 979 nM; in assay [15], 415 nM. Moreover, the Half-blocking dose IC50, NMDA receptor current, oocyte voltage clamp in assay [2] amounted to 5200 nM; in assay [6], 655 nM; in assay [8], 4000 nM; in assay [12], 3700 nM.
